Measurements as given in patent US20110300138A1 (published 2011).
Where two headings read alike, the source gives them in different places.

Experiments:
Assay in all cases: cell-based or functional assay
[1] = target: TSHR with Tyr206 mutated to Ala (expressed in CHO cells) (human) (UniProt P16473)
[2] = target: TSHR with Tyr185 mutated to Ala, expressed in CHO cells (human) (UniProt P16473)
[3] = target: TSHR with Glu107 mutated to Ala expressed in CHO cells (human) (UniProt P16473)
[4] = target: TSHR with Glu61 mutated to Ala, expressed in CHO cells (human) (UniProt P16473)
[5] = target: TSHR with Thr257 mutated to Ala (human) (UniProt P16473)
Chain of TSHR with Thr257 mutated to Ala (human) (P16473 other isoform, or with tags, fused parts or gaps, change not shown): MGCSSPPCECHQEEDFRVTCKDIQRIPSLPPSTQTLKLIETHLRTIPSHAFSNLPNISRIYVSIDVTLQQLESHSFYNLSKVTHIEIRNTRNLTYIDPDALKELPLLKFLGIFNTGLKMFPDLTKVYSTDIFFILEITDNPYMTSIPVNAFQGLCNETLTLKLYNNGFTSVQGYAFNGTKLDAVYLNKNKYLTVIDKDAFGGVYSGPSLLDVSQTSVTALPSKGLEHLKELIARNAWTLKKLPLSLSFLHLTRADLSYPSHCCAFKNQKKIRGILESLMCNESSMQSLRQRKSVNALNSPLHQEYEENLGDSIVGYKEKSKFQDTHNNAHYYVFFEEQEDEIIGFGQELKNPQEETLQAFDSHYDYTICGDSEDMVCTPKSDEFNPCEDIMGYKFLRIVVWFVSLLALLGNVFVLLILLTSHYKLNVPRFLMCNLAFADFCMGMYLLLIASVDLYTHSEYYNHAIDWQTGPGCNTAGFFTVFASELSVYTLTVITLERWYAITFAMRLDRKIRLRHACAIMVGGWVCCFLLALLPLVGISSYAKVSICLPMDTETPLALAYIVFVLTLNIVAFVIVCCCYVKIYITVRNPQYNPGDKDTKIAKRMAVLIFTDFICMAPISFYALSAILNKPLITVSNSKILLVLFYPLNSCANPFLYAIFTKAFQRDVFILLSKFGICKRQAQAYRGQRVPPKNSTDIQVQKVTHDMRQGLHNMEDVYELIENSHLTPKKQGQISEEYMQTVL

[6] = target: TSHR with Asp232 mutated to Ala expressed in CHO cells (human) (UniProt P16473)
Chain of TSHR with Asp232 mutated to Ala expressed in CHO cells (human) (P16473 other isoform, or with tags, fused parts or gaps limits assumed, change not shown): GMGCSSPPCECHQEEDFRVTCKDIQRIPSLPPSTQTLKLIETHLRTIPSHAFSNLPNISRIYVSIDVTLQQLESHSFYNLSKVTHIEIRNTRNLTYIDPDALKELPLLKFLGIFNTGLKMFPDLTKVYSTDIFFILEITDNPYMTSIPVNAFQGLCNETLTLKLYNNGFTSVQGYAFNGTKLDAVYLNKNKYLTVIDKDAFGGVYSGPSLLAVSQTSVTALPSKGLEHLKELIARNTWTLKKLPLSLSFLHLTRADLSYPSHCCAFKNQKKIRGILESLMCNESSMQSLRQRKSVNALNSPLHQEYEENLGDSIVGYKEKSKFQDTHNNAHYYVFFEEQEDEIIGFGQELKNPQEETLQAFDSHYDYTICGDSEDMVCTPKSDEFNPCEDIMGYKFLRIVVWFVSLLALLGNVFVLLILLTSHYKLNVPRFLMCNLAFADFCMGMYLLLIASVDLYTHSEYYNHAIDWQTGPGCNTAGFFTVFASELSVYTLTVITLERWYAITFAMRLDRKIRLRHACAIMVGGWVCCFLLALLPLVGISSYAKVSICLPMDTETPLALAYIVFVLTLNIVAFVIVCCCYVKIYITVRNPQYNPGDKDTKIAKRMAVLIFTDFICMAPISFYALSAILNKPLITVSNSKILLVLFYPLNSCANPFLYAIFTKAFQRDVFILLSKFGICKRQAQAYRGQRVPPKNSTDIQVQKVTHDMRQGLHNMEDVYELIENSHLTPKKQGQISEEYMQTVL

Chain of TSHR with Glu107 mutated to Ala expressed in CHO cells (human) (P16473 other isoform, or with tags, fused parts or gaps, change not shown): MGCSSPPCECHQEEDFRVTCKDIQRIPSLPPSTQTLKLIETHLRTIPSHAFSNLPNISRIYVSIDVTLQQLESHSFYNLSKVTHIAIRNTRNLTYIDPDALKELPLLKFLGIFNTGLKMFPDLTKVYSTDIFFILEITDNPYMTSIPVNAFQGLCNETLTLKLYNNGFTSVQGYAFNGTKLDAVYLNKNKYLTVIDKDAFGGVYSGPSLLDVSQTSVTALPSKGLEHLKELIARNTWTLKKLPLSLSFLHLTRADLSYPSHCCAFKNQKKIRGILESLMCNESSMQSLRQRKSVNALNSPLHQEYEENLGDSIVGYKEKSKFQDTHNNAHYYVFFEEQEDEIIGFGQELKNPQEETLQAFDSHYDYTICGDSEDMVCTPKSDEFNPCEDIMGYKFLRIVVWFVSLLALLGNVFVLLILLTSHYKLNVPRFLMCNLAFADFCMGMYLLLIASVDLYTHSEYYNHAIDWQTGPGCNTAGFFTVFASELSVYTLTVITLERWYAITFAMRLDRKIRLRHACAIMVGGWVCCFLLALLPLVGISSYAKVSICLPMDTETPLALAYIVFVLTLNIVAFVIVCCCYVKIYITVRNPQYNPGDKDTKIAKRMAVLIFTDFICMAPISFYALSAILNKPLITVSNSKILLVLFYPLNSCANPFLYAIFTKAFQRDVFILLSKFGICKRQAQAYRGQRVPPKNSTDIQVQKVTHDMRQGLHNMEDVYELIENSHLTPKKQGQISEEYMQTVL
Chain of TSHR with Tyr206 mutated to Ala (expressed in CHO cells) (human) (P16473 other isoform, or with tags, fused parts or gaps limits assumed, change not shown): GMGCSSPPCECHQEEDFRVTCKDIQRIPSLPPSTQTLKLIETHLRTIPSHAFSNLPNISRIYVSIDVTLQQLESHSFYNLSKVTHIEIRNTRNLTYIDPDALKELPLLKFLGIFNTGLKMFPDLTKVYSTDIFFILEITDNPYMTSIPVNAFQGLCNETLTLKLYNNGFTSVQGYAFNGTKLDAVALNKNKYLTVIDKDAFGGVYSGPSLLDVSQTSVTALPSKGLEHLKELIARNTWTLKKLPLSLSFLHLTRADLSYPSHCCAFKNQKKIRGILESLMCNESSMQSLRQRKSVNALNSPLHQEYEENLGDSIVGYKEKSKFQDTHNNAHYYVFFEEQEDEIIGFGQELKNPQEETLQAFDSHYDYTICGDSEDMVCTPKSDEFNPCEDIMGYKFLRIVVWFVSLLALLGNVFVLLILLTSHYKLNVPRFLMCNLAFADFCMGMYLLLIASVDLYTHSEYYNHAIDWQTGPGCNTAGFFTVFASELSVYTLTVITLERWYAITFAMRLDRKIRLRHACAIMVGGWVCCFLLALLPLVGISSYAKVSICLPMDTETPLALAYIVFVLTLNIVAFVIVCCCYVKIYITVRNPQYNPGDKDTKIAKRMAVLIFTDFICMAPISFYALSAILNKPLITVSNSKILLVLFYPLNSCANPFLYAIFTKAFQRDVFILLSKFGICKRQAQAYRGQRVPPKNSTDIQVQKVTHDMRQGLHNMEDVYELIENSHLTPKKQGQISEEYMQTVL
Chain of TSHR with Tyr185 mutated to Ala, expressed in CHO cells (human) (P16473 other isoform, or with tags, fused parts or gaps limits assumed, change not shown): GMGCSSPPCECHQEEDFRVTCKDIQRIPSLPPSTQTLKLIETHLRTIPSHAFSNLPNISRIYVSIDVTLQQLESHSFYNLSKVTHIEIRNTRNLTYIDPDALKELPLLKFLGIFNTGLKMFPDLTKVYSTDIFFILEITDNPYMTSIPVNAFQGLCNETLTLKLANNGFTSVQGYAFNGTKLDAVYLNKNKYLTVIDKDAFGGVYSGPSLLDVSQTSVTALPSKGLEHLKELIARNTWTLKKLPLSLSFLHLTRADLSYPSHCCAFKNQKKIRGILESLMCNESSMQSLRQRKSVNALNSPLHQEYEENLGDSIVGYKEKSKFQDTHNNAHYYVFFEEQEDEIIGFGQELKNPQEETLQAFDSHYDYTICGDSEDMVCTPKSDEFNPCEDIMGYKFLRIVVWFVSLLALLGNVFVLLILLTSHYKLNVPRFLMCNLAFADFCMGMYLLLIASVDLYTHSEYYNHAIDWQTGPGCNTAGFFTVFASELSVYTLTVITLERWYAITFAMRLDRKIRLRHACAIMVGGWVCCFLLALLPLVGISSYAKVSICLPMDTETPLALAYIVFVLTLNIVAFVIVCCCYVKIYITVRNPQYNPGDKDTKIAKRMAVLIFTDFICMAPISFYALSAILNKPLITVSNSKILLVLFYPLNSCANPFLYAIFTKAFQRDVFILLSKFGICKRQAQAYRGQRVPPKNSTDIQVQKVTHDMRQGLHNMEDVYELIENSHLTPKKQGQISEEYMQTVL

Mutated/Wild type (%) of cyclic AMP produced, TSH 0.01 ng/mL, Experiment 1 [1]: 83%
Mutated/Wild type (%) of cyclic AMP produced, TSH 0.01 ng/mL, Experiment 2 [1]: 135%
Mutated/Wild type (%) of cyclic AMP produced, TSH 0.03 ng/mL, Experiment 1 [1]: 124%
Mutated/Wild type (%) of cyclic AMP produced, TSH 0.03 ng/mL, Experiment 2 [1]: 144%
Mutated/Wild type (%) of cyclic AMP produced, TSH 0.1 ng/mL, Experiment 1 [1]: 93%
Mutated/Wild type (%) of cyclic AMP produced, TSH 0.1 ng/mL, Experiment 2 [1]: 178%
Mutated/Wild type (%) of cyclic AMP produced, TSH 0.3 ng/mL, Experiment 1 [1]: 104%
Mutated/Wild type (%) of cyclic AMP produced, TSH 0.3 ng/mL, Experiment 2 [1]: 110%
Mutated/Wild type (%) of cyclic AMP produced, TSH 1 ng/mL, Experiment 1 [1]: 66%
Mutated/Wild type (%) of cyclic AMP produced, TSH 1 ng/mL, Experiment 2 [1]: 93%
Mutated/wild type (%) of cyclic AMP produced; TSH 3 ng/mL; Experiment 1 [1]: 62%
Mutated/wild type (%) of cyclic AMP produced; TSH 3 ng/mL; Experiment 2 [1]: 97%
Cyclic AMP produced (pmol/mL), mutated TSHR, TSH 0.01 ng/mL, Experiment 1 [2]: 3.33 pmol/mL
Cyclic AMP produced (pmol/mL), mutated TSHR, TSH 0.01 ng/mL, Experiment 2 [2]: 3.82 pmol/mL
Cyclic AMP produced (pmol/mL), mutated TSHR, TSH 0.03 ng/mL, Experiment 1 [2]: 3.85 pmol/mL
Cyclic AMP produced (pmol/mL), mutated TSHR, TSH 0.03 ng/mL, Experiment 2 [2]: 5.6 pmol/mL
Cyclic AMP produced (pmol/mL), mutated TSHR, TSH 0.1 ng/mL, Experiment 1 [2]: 8.36 pmol/mL
Cyclic AMP produced (pmol/mL), mutated TSHR, TSH 0.1 ng/mL, Experiment 2 [2]: 12.3 pmol/mL
Cyclic AMP produced (pmol/mL), mutated TSHR, TSH 0.3 ng/mL, Experiment 1 [2]: 21.1 pmol/mL
Cyclic AMP produced (pmol/mL), mutated TSHR, TSH 0.3 ng/mL, Experiment 2 [2]: 30.5 pmol/mL
Cyclic AMP produced (pmol/mL), mutated TSHR, TSH 1 ng/mL, Experiment 1 [2]: 37.8 pmol/mL
Cyclic AMP produced (pmol/mL), mutated TSHR, TSH 1 ng/mL, Experiment 2 [2]: 50.6 pmol/mL
Cyclic AMP produced (pmol/mL), mutated TSHR, TSH 3 ng/mL, Experiment 1 [2]: 42.9 pmol/mL
Cyclic AMP produced (pmol/mL), mutated TSHR, TSH 3 ng/mL, Experiment 2 [2]: 56.3 pmol/mL
Mutated/Wild type (%), TSH 0.01 ng/mL, Experiment 1 [2]: 128%
Mutated/Wild type (%), TSH 0.01 ng/mL, Experiment 2 [2]: 98%
Mutated/Wild type (%), TSH 0.03 ng/mL, Experiment 1 [2]: 90%
Mutated/Wild type (%), TSH 0.03 ng/mL, Experiment 2 [2]: 101%
Mutated/Wild type (%), TSH 0.1 ng/mL, Experiment 1 [2]: 76%
Mutated/Wild type (%), TSH 0.1 ng/mL, Experiment 2 [2]: 93%
Mutated/Wild type (%), TSH 0.3 ng/mL, Experiment 1 [2]: 65%
Mutated/Wild type (%), TSH 0.3 ng/mL, Experiment 2 [2]: 86%
Mutated/Wild type (%), TSH 1 ng/mL, Experiment 1 [2]: 45%
Mutated/Wild type (%), TSH 1 ng/mL, Experiment 2 [2]: 62%
Mutated/Wild type (%), TSH 3 ng/mL, Experiment 1 [2]: 35%
% inhibition of TSH stimulation; TSH (2) [3]: 12%
Cyclic AMP produced, mutated TSHR, TSH 0.01 ng/mL [3]: 8.2 pmol/mL
Cyclic AMP produced, mutated TSHR, TSH 0.03 ng/mL [3]: 8.92 pmol/mL
Cyclic AMP produced, mutated TSHR, TSH 0.1 ng/mL [3]: 8.24 pmol/mL
Cyclic AMP produced, mutated TSHR, TSH 0.3 ng/mL [3]: 15.7 pmol/mL
Cyclic AMP produced, mutated TSHR, TSH 1 ng/mL [3]: 30.2 pmol/mL
Cyclic AMP produced, mutated TSHR, TSH 3 ng/mL [3]: 43.9 pmol/mL
Cyclic AMP produced; TSH 3 ng/mL [3]: 83.7 pmol/mL
Cyclic AMP produced; TSH (2) [3]: 73.2 pmol/mL
Mutated/Wild type (%) of cyclic AMP produced, TSH 0.01 ng/mL [3]: 582%
Mutated/Wild type (%) of cyclic AMP produced, TSH 0.03 ng/mL [3]: 448%
Mutated/Wild type (%) of cyclic AMP produced, TSH 0.1 ng/mL [3]: 149%
Mutated/Wild type (%) of cyclic AMP produced, TSH 0.3 ng/mL [3]: 97%
Mutated/Wild type (%) of cyclic AMP produced, TSH 1 ng/mL [3]: 68%
Mutated/wild type (%) of cyclic AMP produced; TSH 3 ng/mL [3]: 82%
Mutated/wild type (%) of cyclic AMP produced; TSH (2) [3]: 78%
Mutated/wild type (%) of cyclic AMP produced; TSH 3 ng/mL ([3]; record 2): 110%
% inhibition of TSH stimulation; TSH (2), run at the end of assay [4]: 17%
Mutated/Wild type (%) of cyclic AMP produced, TSH 0.01 ng/mL [4]: 470%
Mutated/Wild type (%) of cyclic AMP produced, TSH 0.03 ng/mL [4]: 369%
Mutated/Wild type (%) of cyclic AMP produced, TSH 0.1 ng/mL [4]: 271%
Mutated/Wild type (%) of cyclic AMP produced, TSH 0.3 ng/mL [4]: 188%
Mutated/Wild type (%) of cyclic AMP produced, TSH 1 ng/mL [4]: 129%
Mutated/wild type (%) of cyclic AMP produced; TSH 3 ng/mL [4]: 110%
Mutated/wild type (%) of cyclic AMP produced; TSH (2) 3 ng/mL, run at the end of assay [4]: 51%
Mutated/wild type (%) of cyclic AMP produced; TSH 3 ng/mL ([4]; record 2): 67%
Mutated/Wild type (%) of cyclic AMP produced, TSH 0.01 ng/mL [5]: 90%
Mutated/Wild type (%) of cyclic AMP produced, TSH 0.03 ng/mL [5]: 93%
Mutated/Wild type (%) of cyclic AMP produced, TSH 0.1 ng/mL [5]: 92%
Mutated/Wild type (%) of cyclic AMP produced, TSH 0.3 ng/mL [5]: 105%
Mutated/Wild type (%) of cyclic AMP produced, TSH 1 ng/mL [5]: 94%
Mutated/wild type (%) of cyclic AMP produced; TSH 3 ng/mL [5]: 86%
Cyclic AMP produced, mutated TSHR, TSH 0.01 ng/mL (Experiment 1) [6]: 1.4 pmol/mL
Cyclic AMP produced, mutated TSHR, TSH 0.01 ng/mL (Experiment 2) [6]: 2.58 pmol/mL
Cyclic AMP produced, mutated TSHR, TSH 0.03 ng/mL (Experiment 1) [6]: 2.16 pmol/mL
Cyclic AMP produced, mutated TSHR, TSH 0.03 ng/mL (Experiment 2) [6]: 4.1 pmol/mL
Cyclic AMP produced, mutated TSHR, TSH 0.1 ng/mL (Experiment 1) [6]: 5.39 pmol/mL
Substance: TSH (ligand)
